Reference: patent US20220127355A1 (INTEGRAL MOLECULAR, published 2022)
Positions count from the first letter of the chain named.

B1: IM173 (antibody, V domains shown)
VH: AVTLDESGGGLQTPGGALSLVCKASGFTFSSYSMFWVRRAPGKGLEWVAGIDSGSTTFYGSAVKGRATISRDNGQSTVRLQLNNLRAEDTATYYCAKDAYGYCGWSGCSADSIDAWGHGTEVIVSS
VL: ALTQPSSVSANPGGTVEITCSGGNNYYGWYQQKSPGSAPVTVIYYNDKRPSDIPSRFSGSKSGSTGTLTITGVQADDEAVYFCGGWDSSGGIFGAGTTLTVL
notes: Detected with anti-human IgG Fc secondary
B2: IM171 (antibody, V domains shown)
VH: AVTLDESGGGLQTPGGALSLVCKASGFDFSSYAMNWVRQAPGKGLEWVAGIGSTGSSTGYGPAVKGRATISRDNGQSTLRLQLNNLRAEDTAIYYCAKSVGNGNSWSGYIATSIDAWGHGTEVIVSS
VL: ALTQPSSVSANLGGTVKLTCSGGSSGYGWYQQKSPGSAPVTVIYSNDKRPSDIPSRFSGSLSGSTGTLTITGVQADDEAVYFCGSTDNSYVGIFGAGTTLTVL
notes: Detected with anti-human IgG Fc secondary; also called LM171

Tests used:
Claudin 9 [1] = target: T1, Claudin 9 (UniProt O95484 1-217); experiment: flow cytometry, HEK-293T cells transiently transfected with the indicated claudin; pUC19 = empty vector control
T1 construct: Octet KD values: intact claudin protein embedded in virus-like particles (lipoparticles); also called CLDN9
T1 sequence (looked up): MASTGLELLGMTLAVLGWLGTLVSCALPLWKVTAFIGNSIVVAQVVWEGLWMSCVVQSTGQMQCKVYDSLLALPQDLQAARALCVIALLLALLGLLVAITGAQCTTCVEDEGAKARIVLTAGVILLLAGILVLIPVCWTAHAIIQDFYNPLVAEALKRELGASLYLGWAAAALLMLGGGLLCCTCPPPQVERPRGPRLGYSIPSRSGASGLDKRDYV
Protocol: (§1) FIG. 2 illustrates the results of a binding assay showing that Claudin 6 MAbs bind to human Claudin 6 preferentially over other Claudin proteins. Human embryonic kidney 293T (HEK-293T) cells were transiently transfected with DNA for the indicated Claudin protein or empty vector along with GFP (pUC) for 22 hours.

V152A = target: T2, V152A; experiment: Shotgun Mutagenesis epitope mapping; mean (range), % of wild-type Claudin 6
T2 construct: Shotgun Mutagenesis mutant; also called Claudin 6 V152A
T2 chain: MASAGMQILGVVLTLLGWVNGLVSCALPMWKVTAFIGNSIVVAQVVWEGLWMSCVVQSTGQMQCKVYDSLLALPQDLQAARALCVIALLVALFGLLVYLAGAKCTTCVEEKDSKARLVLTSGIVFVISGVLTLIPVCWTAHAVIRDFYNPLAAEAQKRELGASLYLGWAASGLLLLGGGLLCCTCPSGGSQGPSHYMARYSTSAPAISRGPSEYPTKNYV

Claudin 6 (human) = target: T3, Claudin 6 (human) (human, UniProt P56747 1-220); experiment: flow cytometry, PA-1 cells naturally expressing Claudin-6
T3 construct: Expressed on transfected HEK-293T cells or naturally on PA-1 cells for flow cytometry; For the Octet KD values it was the intact protein embedded in virus-like particles (lipoparticles); also called hsCLDN6; CLDN6
T3 chain: T2 chain with A152V

Claudin 9 [2] = target: T1, Claudin 9; experiment: biosensor (Forte Octet), intact claudin in virus-like particles (lipoparticles)
Protocol: Affinity of various antibodies against CLDN6 as compared to CLDN9, CLDN3, and CLDN4 was measured using a biosensor. Biosensor affinity measurement of the various antibodies against the proteins was determined using a Forte Octet, which was used for biosensor measurements, using intact claudin proteins embedded in virus-like particles (lipoparticles). The KD for different antibodies is shown below.

Claudin 4 = target: T4, Claudin 4 (UniProt O14493 1-209); experiment: flow cytometry, HEK-293T cells transiently transfected with the indicated claudin; pUC19 = empty vector control
T4 construct: also called CLDN4
T4 sequence (looked up): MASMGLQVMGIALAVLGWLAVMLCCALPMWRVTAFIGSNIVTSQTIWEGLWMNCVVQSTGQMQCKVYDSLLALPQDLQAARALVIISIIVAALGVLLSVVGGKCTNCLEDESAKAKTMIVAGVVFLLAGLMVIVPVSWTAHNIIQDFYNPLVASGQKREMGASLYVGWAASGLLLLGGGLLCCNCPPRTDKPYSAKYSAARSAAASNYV
Protocol: as §1

Binder	binding result (Claudin 9 [1])	Binding Reactivity (% WT) (V152A)	EC50 (read off the curve) (Claudin 6 (human)) [µg/mL]	Kd (Claudin 9 [2]) [nM]	binding result (Claudin 4)
B1	no binding (tested: log [mAb] about -7.2 M)	58.2			
B2		129	~2	902	no binding (tested: log [mAb] about -7.2 M)
